# Reference: US20240327530A1 (ICHNOS SCIENCES, published 2024)
# T1: Recombinant mouse IL-1RAP Fc fusion protein (Sino Biologicals, catalog no. 52657-M02H) (mouse, UniProt Q61730 21-350)
# T1 construct: Bought; not shown: Fc part of the bought fusion protein
# T1 sequence: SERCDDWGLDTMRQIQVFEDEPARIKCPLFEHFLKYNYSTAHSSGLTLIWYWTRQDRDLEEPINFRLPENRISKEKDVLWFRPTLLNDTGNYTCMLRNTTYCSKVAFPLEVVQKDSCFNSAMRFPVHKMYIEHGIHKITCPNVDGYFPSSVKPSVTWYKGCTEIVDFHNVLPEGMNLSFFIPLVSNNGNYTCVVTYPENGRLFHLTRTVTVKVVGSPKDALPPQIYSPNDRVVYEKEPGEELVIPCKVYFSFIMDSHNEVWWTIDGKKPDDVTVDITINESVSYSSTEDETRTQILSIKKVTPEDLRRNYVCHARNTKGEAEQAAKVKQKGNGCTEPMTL
# T2: Recombinant human IL-1RAP Fc fusion protein (Acrobiosystems, catalog no. ILP-H5256) (human, UniProt Q9NPH3 21-359, limits assumed)
# T2 construct: Bought; not shown: Fc part of the bought fusion protein
# T2 sequence: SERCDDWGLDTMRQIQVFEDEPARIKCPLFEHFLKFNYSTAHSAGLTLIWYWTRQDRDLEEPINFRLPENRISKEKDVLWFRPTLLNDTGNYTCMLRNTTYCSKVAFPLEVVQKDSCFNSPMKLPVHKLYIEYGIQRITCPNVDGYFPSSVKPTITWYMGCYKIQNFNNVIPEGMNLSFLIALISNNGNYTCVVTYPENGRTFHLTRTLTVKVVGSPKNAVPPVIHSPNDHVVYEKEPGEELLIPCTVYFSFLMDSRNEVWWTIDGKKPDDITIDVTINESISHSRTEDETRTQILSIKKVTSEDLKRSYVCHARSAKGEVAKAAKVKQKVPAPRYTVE
# T3: Recombinant cynomolgus monkey IL-1RAP-ECD(S21-E359)-avi-his protein (cynomolgus monkey, UniProt P59822 21-359 (rhesus entry))
# T3 construct: also called cyno IL-1RAP-ECD-Avi-His; recombinant cynomolgus monkey IL-1RAP-avi-his protein
# T3 sequence: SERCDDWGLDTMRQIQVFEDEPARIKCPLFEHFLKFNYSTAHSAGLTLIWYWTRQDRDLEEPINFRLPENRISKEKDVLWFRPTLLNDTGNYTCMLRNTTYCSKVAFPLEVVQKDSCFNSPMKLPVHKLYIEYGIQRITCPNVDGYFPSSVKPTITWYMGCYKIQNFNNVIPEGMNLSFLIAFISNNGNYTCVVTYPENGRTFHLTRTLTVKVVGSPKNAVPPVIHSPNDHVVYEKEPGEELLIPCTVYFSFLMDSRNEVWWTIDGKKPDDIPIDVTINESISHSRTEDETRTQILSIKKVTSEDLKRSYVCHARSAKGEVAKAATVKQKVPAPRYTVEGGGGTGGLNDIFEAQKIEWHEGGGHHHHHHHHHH
# B1: Anti-IL-1RAP-UCP02-C8-Fab (Fab, V domains shown)
# VH: QVQLVQSGAEVKKPGSSVKVSCKASGGQFSEYAIQWVRQAPGQGLEWMGYIIPLHGQVDYAQKFQGRVTITADESTSTAYMELSSLRSEDTAVYYCARGQTLYDSGRQFDIWGQGTLVTVSS
# VL: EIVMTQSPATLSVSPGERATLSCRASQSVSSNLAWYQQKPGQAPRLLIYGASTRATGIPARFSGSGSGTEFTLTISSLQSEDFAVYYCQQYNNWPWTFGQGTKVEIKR
# notes: also called anti-IL-1RAP-C8; anti-IL-1RAP-C8 Fab
# B2: Anti-IL-1RAP-UCP02-H8-Fab (Fab, V domains shown)
# VH: QVQLVQSGAEVKKPGSSVKVSCKASGGVFSGYAISWVRQAPGQGLEWMGGIIPEFGATNYAQKFQGRVTITADESTSTAYMELSSLRSEDTAVYYCARHSSAYSPWFDYWGQGTLVTVSS
# VL: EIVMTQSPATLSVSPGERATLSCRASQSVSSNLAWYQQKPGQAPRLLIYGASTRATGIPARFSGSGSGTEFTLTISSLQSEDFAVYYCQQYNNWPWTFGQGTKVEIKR
# B3: Anti-IL-1RAP-UCP02-H9-Fab (Fab, V domains shown)
# VH: QVQLVQSGAEVKKPGSSVKVSCKASGGPFSSYALSWVRQAPGQGLEWMGGIIPHHGATYYAQKFQGRVTITADESTSTAYMELSSLRSEDTAVYYCARHPDVYTPWFDVWGQGTLVTVSS
# VL: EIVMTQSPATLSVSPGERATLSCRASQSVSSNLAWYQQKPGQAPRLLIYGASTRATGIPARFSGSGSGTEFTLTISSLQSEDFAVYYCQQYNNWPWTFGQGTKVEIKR
# B4: Anti-IL-1RAP-UCP02-C9-Fab (Fab, V domains shown)
# VH: QVQLVQSGAEVKKPGSSVKVSCKASGGVFSYYAFHWVRQAPGQGLEWMGGIIPGYGATFYAQKFQGRVTITADESTSTAYMELSSLRSEDTAVYYCARPVSYSSGWYDYWGQGTLVTVSS
# VL: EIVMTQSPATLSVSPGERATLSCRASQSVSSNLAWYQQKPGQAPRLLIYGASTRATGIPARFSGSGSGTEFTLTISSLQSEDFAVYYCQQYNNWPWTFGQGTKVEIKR
# B5: Anti-IL-1RAP-UCP02-D2-Fab (Fab, V domains shown)
# VH: QVQLVQSGAEVKKPGSSVKVSCKASGGRFSDSAIHWVRQAPGQGLEWMGYILPQFGAPLYAQKFQGRVTITADESTSTAYMELSSLRSEDTAVYYCARGSYYGVVGYVPDDYWGQGTLVTVSS
# VL: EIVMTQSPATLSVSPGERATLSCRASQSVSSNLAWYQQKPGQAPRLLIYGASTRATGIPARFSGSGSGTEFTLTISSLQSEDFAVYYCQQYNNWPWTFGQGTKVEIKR
# B6: Anti-IL-1RAP-UCP02-G8-Fab (Fab, V domains shown)
# VH: QVQLVQSGAEVKKPGSSVKVSCKASGGFFSIYAISWVRQAPGQGLEWMGGIAPAAGIAEYAQKFQGRVTITADESTSTAYMELSSLRSEDTAVYYCARGQSPGRVREEYWYDYWGQGTLVTVSS
# VL: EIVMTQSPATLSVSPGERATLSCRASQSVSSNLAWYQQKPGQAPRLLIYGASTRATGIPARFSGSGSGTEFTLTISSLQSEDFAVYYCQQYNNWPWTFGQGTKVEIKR
# B7: Anti-IL-1RAP-UCP03-F4-Fab (Fab, V domains shown)
# VH: QVQLVQSGAEVKKPGSSVKVSCKASGGGFSEYAIHWVRQAPGQGLEWMGAILPEQGAAYYAQKFQGRVTITADESTSTAYMELSSLRSEDTAVYYCARVGLYVPYMDIWGQGTLVTVSS
# VL: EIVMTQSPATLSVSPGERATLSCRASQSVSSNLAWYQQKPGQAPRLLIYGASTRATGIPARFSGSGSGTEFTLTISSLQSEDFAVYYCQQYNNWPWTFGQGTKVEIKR
# B8: Anti-IL-1RAP-UCP02-C5-Fab (Fab, V domains shown)
# VH: QVQLVQSGAEVKKPGSSVKVSCKASGGHFNIYAISWVRQAPGQGLEWMGYIIPSLGAVDYAQKFQGRVTITADESTSTAYMELSSLRSEDTAVYYCARASIYHGWMAYWGQGTLVTVSS
# VL: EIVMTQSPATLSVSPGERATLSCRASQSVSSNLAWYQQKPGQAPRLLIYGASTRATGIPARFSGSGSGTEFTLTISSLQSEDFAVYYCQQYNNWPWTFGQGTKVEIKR
# B9: Anti-IL-1RAP-UCP03-A2-Fab (Fab, V domains shown)
# VH: QVQLVQSGAEVKKPGSSVKVSCKASGGKFNFDVIHWVRQAPGQGLEWMGGIIPDFASTHYAQKFQGRVTITADESTSTAYMELSSLRSEDTAVYYCARVPDYYTGWMAYWGQGTLVTVSS
# VL: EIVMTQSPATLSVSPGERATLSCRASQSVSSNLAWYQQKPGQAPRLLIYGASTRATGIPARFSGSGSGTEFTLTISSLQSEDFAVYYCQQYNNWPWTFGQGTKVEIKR
# B10: Anti-IL-1RAP-UCP02-A6-Fab (Fab, V domains shown)
# VH: QVQLVQSGAEVKKPGSSVKVSCKASGGAFRIYAIHWVRQAPGQGLEWMGGILASGGGAVYAQKFQGRVTITADESTSTAYMELSSLRSEDTAVYYCARAKDIYGYGYGDIWGQGTLVTVSS
# VL: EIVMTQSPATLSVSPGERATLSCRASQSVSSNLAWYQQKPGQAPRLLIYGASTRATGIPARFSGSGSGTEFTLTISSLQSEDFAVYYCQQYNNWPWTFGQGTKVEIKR
# B11: Anti-IL-1RAP-UCP02-G3-Fab (Fab, V domains shown)
# VH: QVQLVQSGAEVKKPGSSVKVSCKASGGYLNEYAIHWVRQAPGQGLEWMGAVIPRYGQTYYAQKFQGRVTITADESTSTAYMELSSLRSEDTAVYYCARPLGYSYGWFDYWGQGTLVTVSS
# VL: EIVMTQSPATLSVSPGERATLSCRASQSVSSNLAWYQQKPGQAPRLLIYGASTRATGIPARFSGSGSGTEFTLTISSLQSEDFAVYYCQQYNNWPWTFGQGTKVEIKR
# B12: Anti-IL-1RAP-UCP02-G11-Fab (Fab, V domains shown)
# VH: QVQLVQSGAEVKKPGSSVKVSCKASGGQFNDYAIHWVRQAPGQGLEWMGYIIPAYGQAEYAQKFQGRVTITADESTSTAYMELSSLRSEDTAVYYCARVPYSTAYFDYWGQGTLVTVSS
# VL: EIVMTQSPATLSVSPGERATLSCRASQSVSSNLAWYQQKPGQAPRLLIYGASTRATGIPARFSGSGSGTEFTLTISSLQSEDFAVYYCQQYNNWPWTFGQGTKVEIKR
# B13: Anti-IL-1RAP-UCP03-B6-Fab (Fab, V domains shown)
# VH: QVQLVQSGAEVKKPGSSVKVSCKASGDPFSVYIIHWVRQAPGQGLEWMGYIIAQQGSASYAQKFQGRVTITADESTSTAYMELSSLRSEDTAVYYCARVPDPYSGHFDYWGQGTLVTVSS
# VL: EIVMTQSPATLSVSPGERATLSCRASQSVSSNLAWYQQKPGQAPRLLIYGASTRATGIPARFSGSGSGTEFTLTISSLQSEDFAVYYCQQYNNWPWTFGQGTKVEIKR
# B14: Anti-IL-1RAP-UCP03-A3-Fab (Fab, V domains shown)
# VH: QVQLVQSGAEVKKPGSSVKVSCKASGGLFNENAIHWVRQAPGQGLEWMGGIIPDVGAAFYAQKFQGRVTITADESTSTAYMELSSLRSEDTAVYYCARGSIYTAWFAVWGQGTLVTVSS
# VL: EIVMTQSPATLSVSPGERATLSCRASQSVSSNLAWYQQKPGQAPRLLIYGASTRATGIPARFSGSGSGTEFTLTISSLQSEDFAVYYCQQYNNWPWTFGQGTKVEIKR
# B15: Anti-IL-1RAP-UCP03-C1-Fab (Fab, V domains shown)
# VH: QVQLVQSGAEVKKPGSSVKVSCKASGGRFSSNAISWVRQAPGQGLEWMGGIIPHFGAVYYAQKFQGRVTITADESTSTAYMELSSLRSEDTAVYYCARGSVYTGWFDNWGQGTLVTVSS
# VL: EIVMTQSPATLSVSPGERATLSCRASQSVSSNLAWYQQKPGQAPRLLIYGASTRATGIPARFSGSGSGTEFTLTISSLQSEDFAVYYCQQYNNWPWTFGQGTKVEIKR
# B16: Anti-IL-1RAP-UCP02-A4-Fab (Fab, V domains shown)
# VH: QVQLVQSGAEVKKPGSSVKVSCKASGGVFSYYAISWVRQAPGQGLEWMGAIIPDFGHTIYAQKFQGRVTITADESTSTAYMELSSLRSEDTAVYYCARASPYKGWWDYWGQGTLVTVSS
# VL: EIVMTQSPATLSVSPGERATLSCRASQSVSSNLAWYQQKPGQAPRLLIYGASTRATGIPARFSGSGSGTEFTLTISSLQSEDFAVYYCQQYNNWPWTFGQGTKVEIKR
# B17: Anti-IL-1RAP-UCP03-B4-Fab (Fab, V domains shown)
# VH: QVQLVQSGAEVKKPGSSVKVSCKASGGPFSQHAISWVRQAPGQGLEWMGGIIPFEGVAFYAQKFQGRVTITADESTSTAYMELSSLRSEDTAVYYCARSSSYYSWLDYWGQGTLVTVSS
# VL: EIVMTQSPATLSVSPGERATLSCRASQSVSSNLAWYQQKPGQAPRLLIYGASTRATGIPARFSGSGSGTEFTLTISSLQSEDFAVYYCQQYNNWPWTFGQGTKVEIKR
# Biological target: T1, Recombinant mouse IL-1RAP Fc fusion …
# Assay: SPR, mouse IL-1RAP-Fc captured, Fab as analyte
# Procedure: (§1) Surface plasmon resonance (SPR) was used to measure the binding affinities of the Fab fragments for human, cynomolgus monkey and/or mouse IL-1RAP. Affinities were measured on a BIACORE™ T200 instrument (BIACORE™, GE […]®) at 25° C. and analyzed with the BIACORE™ T200 Evaluation Software (v3.1). Measurements were performed on Series S CM5 sensor chips (BIACORE™ T200, BIACORE™, GE […]®, catalog no. BR100530) coupled with anti-human IgG Fc (BIACORE™, GE […]®, catalog no. BR100839) using a commercial amine coupling kit (BIACORE™, GE […]®, catalog no. BR100050) or on Series S BiotinCAPture chips (BIACORE™, GE […]®, catalog no. 28920234). SPR measurements were performed with commercially available recombinant human IL-1RAP Fc fusion protein (Acrobiosystems, catalog no. ILP-H5256) and recombinant mouse IL-1RAP Fc fusion protein (Sino Biologicals, catalog no. 52657-M02H) or with biotinylated recombinant cynomolgus monkey IL-1RAP-avi-his protein produced in-house (SEQ ID NO. 2).
# (§2) The affinities to human, cynomolgus monkey and mouse IL-1RAP were assessed by immobilizing IL-1RAP and using Fab fragments as analyte. Around 100 RU of human or mouse IL-1RAP Fc fusion protein were captured on fc2 of a Series S CM5 sensor chip coupled with anti-human IgG Fc and around 150 RU of biotinylated cynomolgus monkey IL-1RAP protein were captured on fc2 of a Series S BiotinCAPture chip. Fab fragments were injected in single cycle kinetic at different concentrations ranging from 7.8 to 500 nM, in HBS-EP+ buffer (BIACORE™, GE […]®, catalog no. BR100669) at a flow rate of 30 μl/min for 3 min on fc1 and fc2 (fc1 being used as reference). Dissociation was monitored for 5 min. After each cycle, the surface was regenerated with 60 μl of regeneration solution provided with anti-human IgG Fc capture kit (BIACORE™, GE […]®, catalog no. BR100839) or BiotinCAPture kit (BIACORE™, GE […]®, catalog no. 28920234) respectively. Experimental data were processed using the 1:1 Langmuir kinetic fitting model. Measurements included zero-concentration samples for referencing. Chi², U- and residual values were used to evaluate the quality of a fit between the experimental data and individual binding models.
row,binding result,Binder
1,no binding (tested: 7.8 to 500 nM Fab),B1
2,no binding (tested: 7.8 to 500 nM Fab),B2
3,no binding (tested: 7.8 to 500 nM Fab),B3
4,no binding (tested: 7.8 to 500 nM Fab),B4
5,no binding (tested: 7.8 to 500 nM Fab),B5
6,no binding (tested: 7.8 to 500 nM Fab),B6
7,no binding (tested: 7.8 to 500 nM Fab),B7
8,no binding (tested: 7.8 to 500 nM Fab),B8
9,no binding (tested: 7.8 to 500 nM Fab),B9
10,no binding (tested: 7.8 to 500 nM Fab),B10
11,no binding (tested: 7.8 to 500 nM Fab),B11
12,no binding (tested: 7.8 to 500 nM Fab),B12
13,no binding (tested: 7.8 to 500 nM Fab),B13
14,no binding (tested: 7.8 to 500 nM Fab),B14
15,no binding (tested: 7.8 to 500 nM Fab),B15
16,no binding (tested: 7.8 to 500 nM Fab),B16
17,no binding (tested: 7.8 to 500 nM Fab),B17

# Biological target: T2, Recombinant human IL-1RAP Fc fusion …
# Assay: SPR, human IL-1RAP-Fc captured, Fab as analyte, 1:1 fit
# Procedure: as §1, §2
row,Kd [nM],Binder
1,2.2,B1
2,328,B2
3,907,B3
4,35.6,B4
5,49,B5
6,73.5,B6
7,888,B7
8,368,B8
9,582,B9
10,223,B10
11,230,B11
12,260,B12
13,545,B13
14,137,B14
15,573,B15
16,84.3,B16
17,221,B17

# Biological target: T3, Recombinant cynomolgus monkey …
# Assay: SPR, biotinylated cyno IL-1RAP-avi-his captured, Fab as analyte, 1:1 fit
# Procedure: as §1, §2
row,Kd [nM],Binder
1,2.2,B1
2,297,B2
3,682,B3
4,27.8,B4
5,50.9,B5
6,116,B6
7,334,B8
8,589,B9
9,197,B10
10,296,B11
11,345,B12
12,756,B13
13,177,B14
14,761,B15
15,103,B16
16,220,B17
